Measured values from the supplement of paper PMC7877785.
± gives the uncertainty stated by the source.

Test: self-splicing fitness, log relative to wild type (ln ratio); higher = more splicing; Tetrahymena group I intron in knt gene, E. coli kanamycin selection, DiMSum; sequences stand for … in CUCUCU…GGAGGGAAAAGUUAUCAGGCAUGCACCUGGUAGCUAGUCUUUAAACCAAUAGAUUGCAUCGGUUUAAAAGGCAAGACCGUCAAAUUGCGGGAAAGGGGUCAACAGCCGUUCAGUACCAAGUCUCAGGGGAAACUUUGAGAUGGCCUUGCAAAGGGUAUGGUAAUAAGCUGACGGACAUGGUCCUAACCACGCAGCCAAGUCCUAAGUCAACAGAUCUUCUGUUGAUAUGGAUGCAGUUCACAGACUAAAUGUCGGUCGGGGAAGAUGUAUUCUUCUCAUAAGAUAUAGUCGGACCUCUCCUUAAUGGGAGCUAGCGGAUGAAGUGAUGCAACACUGGAGCCGCUGGGAACUAAUUUGUAUGCGAAAGUAUAUUGAUUAGUUUUGGAGUACUCGUGGUCG
How it was run: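 A randomised library covering all eight P1ex-region intron nucleotides was built with the intron in the knt kanamycin-resistance gene on pET-22b(+) and held in E. coli BL21(DE3). Cells were grown overnight at 37°C or 30°C on LB agar, with or without 25 μg/mL kanamycin, plus 100 μg/mL carbenicillin, 50 μM IPTG and 0.2% rhamnose, and pooled colonies were amplicon-sequenced on an Illumina HiSeq 2500. DiMSum fitness is the error-weighted combination of wild-type-normalised replicate fold changes, kanamycin versus none.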

Sequence	self-splicing fitness (ln) (30 °C)	self-splicing fitness (ln) (37 °C)
AAAAAGCAAUAUUACGAAAU	-1.91 ± 0.091	-1.01 ± 0.12
AAAAAGCAAUAUUACGAAUU	-1.3 ± 0.072	-1.13 ± 0.089
AAAAAGCAAUAUUACGAUGG	-2.81 ± 0.12	-0.923 ± 0.11
AAAAAGCAAUAUUACGCAAC	-2.16 ± 0.15	-1.99 ± 0.24
AAAAAGCAAUAUUACGCCAU	-2.87 ± 0.22	-1.71 ± 0.24
AAAAAGCAAUAUUACGCGCU	-0.379 ± 0.076	-0.358 ± 0.091
AAAAAGCAAUAUUACGCUGU	-2.69 ± 0.13	-1.69 ± 0.11
AAAAAGCAAUAUUACGGACU	-0.0499 ± 0.067	-0.0238 ± 0.083
AAAAAGCAAUAUUACGGAUG	-2.17 ± 0.094	-1.23 ± 0.095
AAAAAGCAAUAUUACGGCAG	-1.32 ± 0.074	-0.434 ± 0.095
AAAAAGCAAUAUUACGGCAU	0.0355 ± 0.061	0.55 ± 0.081
AAAAAGCAAUAUUACGGGUA	-1.61 ± 0.11	-0.435 ± 0.11
AAAAAGCAAUAUUACGGUCG	-0.302 ± 0.062	0.273 ± 0.083
AAAAAGCAAUAUUACGUAUU	-1.92 ± 0.077	-1.39 ± 0.11
AAAAAGCAAUAUUACGUUUA	-1.4 ± 0.1	-0.799 ± 0.091
AAACAGCAAUAUUACGAUGA	-1.34 ± 0.067	-0.0116 ± 0.067
AAACAGCAAUAUUACGCAGA	-2.53 ± 0.15	-1.42 ± 0.11
AAACAGCAAUAUUACGCGUC	-2.3 ± 0.095	-1.78 ± 0.12
AAACAGCAAUAUUACGGCCG	-1.69 ± 0.13	-0.732 ± 0.16
AAACAGCAAUAUUACGGUAG	-2.8 ± 0.12	-2.02 ± 0.12
AAACAGCAAUAUUACGUACA	-1.23 ± 0.073	-0.0501 ± 0.082
AAACAGCAAUAUUACGUAUC	-3.98 ± 0.17	-1.97 ± 0.12
AAACAGCAAUAUUACGUCAA	-2.45 ± 0.11	-1.44 ± 0.087
AAACAGCAAUAUUACGUCGA	-0.86 ± 0.065	-0.774 ± 0.073
AAACAGCAAUAUUACGUGAC	-3.5 ± 0.14	-2.29 ± 0.13
AAACAGCAAUAUUACGUGCC	-2 ± 0.1	-1.31 ± 0.13

Sequence	self-splicing fitness (ln) (30 °C)	self-splicing fitness (ln) (37 °C)
AAACAGCAAUAUUACGUGGG	-3.64 ± 0.13	-2.71 ± 0.11
AAACAGCAAUAUUACGUGUC	-4.08 ± 0.15	-2.78 ± 0.13
AAACAGCAAUAUUACGUUCC	-2.55 ± 0.16	-1.13 ± 0.19
AAACAGCAAUAUUACGUUGC	-3.24 ± 0.11	-3.26 ± 0.18
AAAGAGCAAUAUUACGAGAU	-3.95 ± 0.17	-3.28 ± 0.22
AAAGAGCAAUAUUACGAGCU		-2.09 ± 0.28
AAAGAGCAAUAUUACGAGUG	-3.95 ± 0.19	-2.38 ± 0.16
AAAGAGCAAUAUUACGAUAA	-3.45 ± 0.18	-2.2 ± 0.22
AAAGAGCAAUAUUACGAUCC		-1.6 ± 0.32
AAAGAGCAAUAUUACGCACU	-1.46 ± 0.12	-0.12 ± 0.15
AAAGAGCAAUAUUACGCAGC		-2.77 ± 0.41
AAAGAGCAAUAUUACGCCUA	-2.22 ± 0.21	-1.81 ± 0.25
AAAGAGCAAUAUUACGCGCA	-2.39 ± 0.17	-1.5 ± 0.12
AAAGAGCAAUAUUACGCGUC	-2.18 ± 0.2	-2.6 ± 0.21
AAAGAGCAAUAUUACGCGUU	-2.13 ± 0.14	-1.32 ± 0.14
AAAGAGCAAUAUUACGCUAC		-2.81 ± 0.32
AAAGAGCAAUAUUACGCUAG	-2.87 ± 0.17	-2.42 ± 0.27
AAAGAGCAAUAUUACGCUUG	-1.67 ± 0.13	-1.19 ± 0.18
AAAGAGCAAUAUUACGGCCC	-3.78 ± 0.37	-1.59 ± 0.34
AAAGAGCAAUAUUACGGCUG	-2.36 ± 0.1	-1.12 ± 0.12
AAAGAGCAAUAUUACGGGAG	-3.34 ± 0.21	-2.8 ± 0.27
AAAGAGCAAUAUUACGUAAA	-3.11 ± 0.15	-1.42 ± 0.13
AAAGAGCAAUAUUACGUCUA	-1.12 ± 0.093	-0.882 ± 0.093
AAAGAGCAAUAUUACGUGCC	-3.09 ± 0.21	-2.35 ± 0.22
AAAGAGCAAUAUUACGUUCA	-1.03 ± 0.094	-0.639 ± 0.097
AAAGAGCAAUAUUACGUUCG	-1.54 ± 0.11	-0.974 ± 0.15

Sequence	self-splicing fitness (ln) (30 °C)	self-splicing fitness (ln) (37 °C)
AAAGAGCAAUAUUACGUUUA	-1.71 ± 0.17	-1.12 ± 0.21
AAAUAGCAAUAUUACGAACG	-1.42 ± 0.14	-0.384 ± 0.16
AAAUAGCAAUAUUACGAAGU	-2.55 ± 0.18	-2.16 ± 0.2
AAAUAGCAAUAUUACGACAG	-2.02 ± 0.13	-1.34 ± 0.16
AAAUAGCAAUAUUACGAUAG	-3.17 ± 0.27	-2.49 ± 0.23
AAAUAGCAAUAUUACGAUGG	-2.87 ± 0.17	-1.97 ± 0.2
AAAUAGCAAUAUUACGAUUA	0.0855 ± 0.11	0.0228 ± 0.096
AAAUAGCAAUAUUACGAUUU	-0.479 ± 0.061	-0.0855 ± 0.081
AAAUAGCAAUAUUACGCAGC	-3.27 ± 0.33	-0.974 ± 0.25
AAAUAGCAAUAUUACGCUGA	-2.31 ± 0.16	-1.29 ± 0.18
AAAUAGCAAUAUUACGCUGC	-2.73 ± 0.2	-1.86 ± 0.41
AAAUAGCAAUAUUACGGUCA	-0.724 ± 0.069	0.0582 ± 0.071
AAAUAGCAAUAUUACGGUCG	-0.942 ± 0.065	-0.272 ± 0.095
AAAUAGCAAUAUUACGGUGU	-2.83 ± 0.13	-2.05 ± 0.15
AAAUAGCAAUAUUACGUAAG	-1.37 ± 0.078	-0.721 ± 0.096
AAAUAGCAAUAUUACGUAAU	-3.04 ± 0.12	-1.75 ± 0.12
AAAUAGCAAUAUUACGUGCU	-0.869 ± 0.11	-1.22 ± 0.15
AAAUAGCAAUAUUACGUUGU	-4.44 ± 0.29	-1.02 ± 0.12
AACAAGCAAUAUUACGAAUU	-1.9 ± 0.091	-0.666 ± 0.12
AACAAGCAAUAUUACGACAG	-2.25 ± 0.078	-1.76 ± 0.09
AACAAGCAAUAUUACGAGAA	-2.78 ± 0.32	-2.03 ± 0.21
AACAAGCAAUAUUACGAGAC	-1.88 ± 0.11	-2.67 ± 0.19
AACAAGCAAUAUUACGAGAU	-3.08 ± 0.14	-1.62 ± 0.12
AACAAGCAAUAUUACGAGGA	-1.76 ± 0.14	-2.42 ± 0.16
